± gives the half width of the 95% confidence interval.
Columns and labels:
[1] = folding stability dG unfold from trypsin proteolysis; higher = more stable
How it was run: (§1)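 Designed mini-proteins with no cysteine and under 80 residues were kept only if AlphaFold2 dimer inter-PAE was above 15. In a PA-tagged cDNA display construct, they were digested with trypsin and chymotrypsin and then sequenced. K50 was inferred by Bayesian fitting of counts, and unfolding free energy was derived per protease or combined against a sequence-predicted unfolded-state K50 and a shared folded-state K50.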

[2] = folding stability dG unfold from chymotrypsin proteolysis; higher = more stable
How it was run: as §1

[3] = folding stability dG unfold (combined trypsin and chymotrypsin); higher = more stable
How it was run: as §1

Question: Which “folding stability dG unfold” value [1] does the source give for “SAGGSAGGSAGGSELIFKTEDGYYVKVKLKNGKTIVFPAENLEELKKLNVEKVEVVPAKSAGGSAGGSAGGS [r4_348_TrROS_Hall]” here?
Answer: The value was 0.332 ± 0.039 kcal/mol.

Question: And the “folding stability dG unfold” value [2]?
Answer: The value was 0.831 ± 0.042 kcal/mol.

Question: And the “folding stability dG unfold” value [3]?
Answer: Its value is 0.684 ± 0.064 kcal/mol.

Question: For “SAGGSAGGSWGTISIRIEFNFMAFDPGLGQFSMFPMEVYISIPIEIPPPPPPPKPKYDNGKPKSAGGSAGGS [r12_140_TrROS]”, which “folding stability dG unfold” value [1] is on record?
Answer: Its value is 2.6 ± 0.28 kcal/mol.

Question: And the “folding stability dG unfold” value [2]?
Answer: Its value is 4.52 ± 0.21 kcal/mol.

Question: What about the “folding stability dG unfold” value [3] of the same sequence?
Answer: Its value is 3.78 ± 0.29 kcal/mol.

Question: Which “folding stability dG unfold” value [1] does the source give for “SAGGSSPEELAEKAINEAMEKFGFKEISEIKIQKEDDGVRITIRMPNNGYTIEIDYEDGKITEIQPWSAGGS [r16_171_TrROS]” here?
Answer: Its value is 1.53 ± 0.051 kcal/mol.

Question: And the “folding stability dG unfold” value [2]?
Answer: Its value is 0.23 ± 0.2 kcal/mol.

Question: And the “folding stability dG unfold” value [3]?
Answer: Its value is 1.1 ± 0.083 kcal/mol.

Question: Which “folding stability dG unfold” value [1] does the source give for “STIRITLPKEELSPELLEALAKAPGLSEEELRDRLTVEEVDGEVVITLSPEVLEELRKRNPELLEALEKASA [r9_160_TrROS_Hall]” here?
Answer: Its value is 3.32 ± 0.093 kcal/mol.

Question: And the “folding stability dG unfold” value [2]?
Answer: Its value is 1.91 ± 0.054 kcal/mol.

Question: What about the “folding stability dG unfold” value [3] of the same sequence?
Answer: Its value is 2.59 ± 0.11 kcal/mol.

Question: Which “folding stability dG unfold” value [1] does the source give for “SAGGSAGGIKEILKEARENPENAESVTIRIPMEVPVTRYDPDNGEPETHPHPVPGEITIPPDDLSAGGSAGG [r6_560_TrROS]” here?
Answer: The value was 0.435 ± 0.019 kcal/mol.

Question: And the “folding stability dG unfold” value [2]?
Answer: The value was 1.16 ± 0.043 kcal/mol.

Question: And the “folding stability dG unfold” value [3]?
Answer: Its value is 0.889 ± 0.051 kcal/mol.

Question: With “SMYVIETSANKTYTVNVPPDGLVTITYPDGSTETRKFTSEEDLEAFAEELSKKYPDAPATIKPVPLEELGSA [r9_1206_JUSTAS]” as the sequence, how does the “folding stability dG unfold” value [1] read?
Answer: The value was 1.21 ± 0.11 kcal/mol.

Question: What about the “folding stability dG unfold” value [2] of the same sequence?
Answer: Its value is 0.473 ± 0.26 kcal/mol.

Question: What about the “folding stability dG unfold” value [3] of the same sequence?
Answer: The value was 0.959 ± 0.25 kcal/mol.

Question: With “SKKPKLKIEIEIPEITNMQPDPDNGKYTMRVPFRIKIEWKDNGKEREVDIPIPMNMTVDDARDQLKDLLKSA [r9_656_TrROS]” as the sequence, how does the “folding stability dG unfold” value [1] read?
Answer: Its value is 0.629 ± 0.044 kcal/mol.

Question: And the “folding stability dG unfold” value [2]?
Answer: The value was 1.57 ± 0.16 kcal/mol.

Question: And the “folding stability dG unfold” value [3]?
Answer: Its value is 1.1 ± 0.13 kcal/mol.

Question: Which results are given for “SAGKPKKKIKIKLYNVDTGEEIEIEVTVEELKKLLEKLGFEVVKIEYDEETGEVTIYVKVDGYYLEIEESAG [r5_521_TrROS_Hall]”?
Answer: folding stability dG unfold [1]: 2.63 ± 0.16 kcal/mol; folding stability dG unfold [2]: 3.55 ± 0.13 kcal/mol; folding stability dG unfold [3]: 3.41 ± 0.28 kcal/mol

Question: Which “folding stability dG unfold” value [1] does the source give for “SAGGSAGGSAGGMTTVTLTLTTELEVKDPEGKLHRETVTVTVTVPVPPSTLTDTTDLVSSAGGSAGGSAGGS [r10_168_JUSTAS]” here?
Answer: The value was 1.82 ± 0.1 kcal/mol.

Question: And the “folding stability dG unfold” value [2]?
Answer: Its value is 2.12 ± 0.054 kcal/mol.

Question: What about the “folding stability dG unfold” value [3] of the same sequence?
Answer: Its value is 1.91 ± 0.17 kcal/mol.

Question: For “SAGKKSIVAPYEELKKIIELLPSGKKYKVIASDPNGKKIEGTIEVKGGKAKIEPGPKNTFKDLLIVITGSAG [r5_85_TrMRF]”, which “folding stability dG unfold” value [1] is on record?
Answer: Its value is 0.248 ± 0.061 kcal/mol.

Question: What about the “folding stability dG unfold” value [2] of the same sequence?
Answer: The value was 0.3 ± 0.13 kcal/mol.

Question: And the “folding stability dG unfold” value [3]?
Answer: Its value is 0.248 ± 0.12 kcal/mol.

Question: With “SAGGSAGGSAGGMIKIKLGDKWVDVAEVKEYPDSIIVYNPKTNTKITISKKNPEDPNILISAGGSAGGSAGG [r7_391_JUSTAS]” as the sequence, how does the “folding stability dG unfold” value [1] read?
Answer: The value was 0.463 ± 0.09 kcal/mol.

Question: What about the “folding stability dG unfold” value [2] of the same sequence?
Answer: Its value is 1.47 ± 0.081 kcal/mol.

Question: And the “folding stability dG unfold” value [3]?
Answer: Its value is 1.01 ± 0.21 kcal/mol.

Question: With “SAGGSAGGEIRERLRELIEQLPEEELVVRIRRNGEEVELTFRTREDLEAALEANPEAEIEIVRRSAGGSAGG [r6_421_TrROS_Hall]” as the sequence, how does the “folding stability dG unfold” value [1] read?
Answer: Its value is 2.02 ± 0.023 kcal/mol.

Question: And the “folding stability dG unfold” value [2]?
Answer: The value was 3.35 ± 0.037 kcal/mol.

Question: And the “folding stability dG unfold” value [3]?
Answer: Its value is 3 ± 0.058 kcal/mol.

Question: With “SAGGSAGGSAGEVTVPAVVPPDAVPEVVEAVERLGARAEVEWDPETGLYRVNITFDGEVGSAGGSAGGSAGG [r11_1043_TrMRF]” as the sequence, how does the “folding stability dG unfold” value [1] read?
Answer: The value was -0.00326 ± 0.067 kcal/mol.

Question: And the “folding stability dG unfold” value [2]?
Answer: The value was 0.901 ± 0.06 kcal/mol.

Question: What about the “folding stability dG unfold” value [3] of the same sequence?
Answer: Its value is 0.604 ± 0.07 kcal/mol.

Question: Which “folding stability dG unfold” value [1] does the source give for “SAGMTVSTETTTFTDPAGFETTVTTLTTTHPDGSVTSTPTTTVTAVPVPPPPAPVPVDPANPDNPALLSAGG [r19_12_JUSTAS]” here?
Answer: Its value is 0.461 ± 0.038 kcal/mol.

Question: What about the “folding stability dG unfold” value [2] of the same sequence?
Answer: The value was -0.509 ± 0.095 kcal/mol.

Question: What about the “folding stability dG unfold” value [3] of the same sequence?
Answer: The value was 0.163 ± 0.025 kcal/mol.

Question: For “SAGGSAGGSMKITINKWDPDNGNIMVTIQMPGQPVEIMIPWNNVDKLLEKLPFPGMKIDEIYPSAGGSAGGS [r12_23_TrROS]”, which “folding stability dG unfold” value [1] is on record?
Answer: Its value is 1.11 ± 0.1 kcal/mol.

Question: What about the “folding stability dG unfold” value [2] of the same sequence?
Answer: The value was 0.718 ± 0.23 kcal/mol.

Question: And the “folding stability dG unfold” value [3]?
Answer: Its value is 1.14 ± 0.23 kcal/mol.

Question: With “SAGWFISIKYKDPPTGRKRKISIPIPPGDPWLKELGFPSLDGLAKWLAPEMREEGHDVKDVKVEIMPPKSAG [r5_722_TrROS]” as the sequence, how does the “folding stability dG unfold” value [1] read?
Answer: The value was 3.38 ± 0.19 kcal/mol.

Question: And the “folding stability dG unfold” value [2]?
Answer: Its value is 4.16 ± 0.059 kcal/mol.

Question: What about the “folding stability dG unfold” value [3] of the same sequence?
Answer: Its value is 3.75 ± 0.16 kcal/mol.

Question: What does the source list for “SAGGGSTTTRTIGSKDGTVATVTVTTDPATGTTTVTISSPSPEVLEEVAAQLGLPVREVLPDGTVVLASAGG [r13_937_JUSTAS]”?
Answer: folding stability dG unfold [1]: 0.659 ± 0.023 kcal/mol; folding stability dG unfold [2]: 1.25 ± 0.015 kcal/mol; folding stability dG unfold [3]: 1.08 ± 0.037 kcal/mol

Question: For “SAGGSAGGSAPNLEVEEQRNPDGGMEMEIIRLKNDGLTIFFMEMRPDDKTMTMLMLMPLDASAGGSAGGSAG [r3_126_TrROS]”, which “folding stability dG unfold” value [1] is on record?
Answer: Its value is 2.19 ± 0.19 kcal/mol.

Question: And the “folding stability dG unfold” value [2]?
Answer: Its value is 2.32 ± 0.13 kcal/mol.

Question: What about the “folding stability dG unfold” value [3] of the same sequence?
Answer: The value was 2.48 ± 0.19 kcal/mol.

Question: For “SAGGSAGGSAGPPNQRHEYEIKLTIYDPDNGKKFTIKIPMESPWDMPNFMRKLADNGYIKSAGGSAGGSAGG [r11_668_TrROS]”, which “folding stability dG unfold” value [1] is on record?
Answer: Its value is 0.557 ± 0.14 kcal/mol.

Question: What about the “folding stability dG unfold” value [2] of the same sequence?
Answer: Its value is 1.38 ± 0.11 kcal/mol.

Question: And the “folding stability dG unfold” value [3]?
Answer: The value was 1.12 ± 0.11 kcal/mol.

Question: For “SAGSVTITLNIPPGQDVTLNIGGKEATLTVDPETKVYTMTDPQTGDVWTVTVDPNSPVASVTYTAAPAGSAG [r5_302_JUSTAS]”, which “folding stability dG unfold” value [1] is on record?
Answer: Its value is 0.996 ± 0.039 kcal/mol.

Question: What about the “folding stability dG unfold” value [2] of the same sequence?
Answer: The value was 1.57 ± 0.15 kcal/mol.

Question: What about the “folding stability dG unfold” value [3] of the same sequence?
Answer: Its value is 1.37 ± 0.11 kcal/mol.

Question: Which results are given for “SAGGDVVRVRVRLRRFEIVGDRPVYRPVDIDILAEADGDPEAARRRAEREARRLAEEYGAEIEDIELFPSAG [r5_497_TrMRF]”?
Answer: folding stability dG unfold [1]: 2.15 ± 0.026 kcal/mol; folding stability dG unfold [2]: 2.57 ± 0.04 kcal/mol; folding stability dG unfold [3]: 2.4 ± 0.083 kcal/mol

Reference: the supplement of paper PMC12764529
